Source: patent US20230136228A1 (LAMKAP BIO ALPHA, published 2023)
Where a chain is given by its changes, count along the chain named. Names may count otherwise.

Assays:
human CEACAM8 = target: T1, human CEACAM8 (human, UniProt P31997 35-320); assay: flow cytometry, transfected PEAK cells
T1 construct: whole, on cells
T1 sequence (looked up): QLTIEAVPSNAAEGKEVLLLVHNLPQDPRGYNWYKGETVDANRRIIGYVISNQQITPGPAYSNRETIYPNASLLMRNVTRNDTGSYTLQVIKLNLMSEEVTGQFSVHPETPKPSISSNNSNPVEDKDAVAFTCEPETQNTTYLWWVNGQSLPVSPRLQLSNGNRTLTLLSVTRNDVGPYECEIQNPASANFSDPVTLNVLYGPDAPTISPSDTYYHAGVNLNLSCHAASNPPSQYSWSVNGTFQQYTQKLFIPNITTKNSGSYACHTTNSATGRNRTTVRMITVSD
Source text: (§1) Vectors encoding the full-length version of human CEACAM 1, 3, 4, 5, 6, 7, 8, 18, 19, 20 and […] are used to express these proteins at the surface of PEAK and/or CHO cells as described in Example 1. Similarly, vectors encoding the full-length version of cyno CEACAM 5 and 6 are also used to express these proteins at the surface of PEAK and/or CHO cells. Non-transfected PEAK and/or CHO cells are used as negative control. Cells are harvested, counted, checked for viability and resuspended at 3×10⁶ cells/ml in FACS buffer (PBS 2% BSA, 0.1% NaN₃). 100 μl of the cell suspension are distributed in V-bottom 96-well plates (3×10⁵ cells/well). The supernatant is removed by centrifugation 3 minutes at 4° C., 1300 rpm and the cells incubated for 15 minutes at 4° C. with increasing concentrations of the antibody according to the invention. The antibodies carrying the anti-CEACAM5 arms to test are diluted in FACS buffer and the concentration range is 30 pM-500 nM. Cells are washed twice with cold FACS buffer and re-incubated for further 15 minutes at 4° C. with a compatible anti-human IgG secondary antibody. Cells are washed twice with cold FACS buffer and resuspended in 300 μl FACS buffer with 1:1500-diluted TOPRO-3 (Invitrogen). Fluorescence is measured using a FACSCalibur™ (BD Biosciences) or a Cytoflex Platform (Beckman Coulter). Dose-response binding curves are fitted using GraphPad Prism8 software. In the same manner, CEACAM1, CEACAM6 and other CEACAMs can be characterized.
(§2) For the bispecific antibodies AB17L3-1/N, AB71L3-1/N, AB72L3-1/N, AB73L3-1/N the MFI measured for binding to CEACAM5 transfected cells was found between 29000 and 41000 (Table 2). In contrast MFI found by using PEAK cells transfected with CEACAM 1,3,4,6,8 were found below 1000 with the only exception of a strong signal for AB72L3-1/N on CEACAM8 transfected cells. When MFI values obtained on transfected cells expressing any given CEACAM are divided by the values obtained on WT PEAK cells, “factors to PEAK WT” can be calculated (Table 3).

human CD3ε [1] = target: T2, human CD3ε (human, UniProt P07766 23-207); assay: flow cytometry, HUT-78 cells
T2 construct: whole, on cells; Present on cells as part of the CD3/TCR complex; also called CD3 epsilon
T2 sequence (P07766 23-207): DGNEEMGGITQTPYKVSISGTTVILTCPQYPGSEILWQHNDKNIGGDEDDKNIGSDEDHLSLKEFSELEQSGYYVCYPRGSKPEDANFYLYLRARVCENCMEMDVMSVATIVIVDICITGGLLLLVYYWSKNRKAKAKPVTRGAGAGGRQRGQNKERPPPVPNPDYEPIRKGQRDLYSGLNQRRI

[2] = target: T3, human CEACAM5 (carcinoembryonic antigen, CEA), cell surface (human, UniProt P06731 35-685); assay: flow cytometry, MKN-45 cells
T3 construct: whole, on cells; also called CD66e
T3 sequence (looked up): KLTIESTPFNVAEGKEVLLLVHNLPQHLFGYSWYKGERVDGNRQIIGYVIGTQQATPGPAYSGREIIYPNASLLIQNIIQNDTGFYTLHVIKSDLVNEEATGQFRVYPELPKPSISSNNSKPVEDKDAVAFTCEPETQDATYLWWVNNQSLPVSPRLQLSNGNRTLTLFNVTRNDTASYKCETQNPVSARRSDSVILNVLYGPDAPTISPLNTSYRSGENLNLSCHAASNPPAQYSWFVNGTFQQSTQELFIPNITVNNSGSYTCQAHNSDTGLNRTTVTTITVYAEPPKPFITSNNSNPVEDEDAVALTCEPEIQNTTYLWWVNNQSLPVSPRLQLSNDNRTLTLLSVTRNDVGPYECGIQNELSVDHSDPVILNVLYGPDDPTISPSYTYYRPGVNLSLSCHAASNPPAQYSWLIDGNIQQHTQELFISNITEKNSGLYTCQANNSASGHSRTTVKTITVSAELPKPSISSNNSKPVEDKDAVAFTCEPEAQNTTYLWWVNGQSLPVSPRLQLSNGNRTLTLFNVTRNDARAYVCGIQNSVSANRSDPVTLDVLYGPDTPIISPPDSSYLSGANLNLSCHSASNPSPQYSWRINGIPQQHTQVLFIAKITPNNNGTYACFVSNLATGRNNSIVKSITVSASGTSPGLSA
Source text: Examples of cells that can be used include CEACAM5-positive cell lines such as the gastric adenocarcinoma cell line MKN45 (expressing 155′000 CEACAM5 molecules per cell), or the pancreatic adenocarcinoma cell line HPAF-II (expressing 108′000 CEACAM5 molecules per cell) or the colorectal adenocarcinoma cell line LS174T (expressing 26′000 CEACAM5 molecules per cell) and CEACAM5-negative cell lines, such as the lung carcinoma cell line A549 and the MKN45 CEACAM5-knock out cell line generated by CRISPR-CAS9 methodology. Cell staining and binding assessment can be performed as described above. Binding of the bsAb of the invention at 200 nM, 1000 nM and 5000 nM is 40% and higher compared to binding of TCB2014 (see Table 4 and also FIGS. 11 and 14).

[3] = target: T3, human CEACAM5 (carcinoembryonic …); assay: flow cytometry, transfected PEAK cells, 10 mcg/ml
Source text: as §1, §2

[4] = target: T3, human CEACAM5 (carcinoembryonic …); assay: flow cytometry, MKN-45 and/or HPAF-II cells
[5] = target: T3, human CEACAM5 (carcinoembryonic …); assay: flow cytometry, CEA positive cells
human CD3ε [6] = target: T2, human CD3ε; assay: flow cytometry, primary CD4+ and CD8+ T-cells

B1: AB17L3-1/N (bispecific antibody, human IgG1, kappa, lambda, L234A L235A)
heavy: EVQLVESGGGLVQPGGSLKLSCAASGFTFNTYAMNWVRQAPGKGLEWVGRIRSKYNNYATYYADSVKDRFTISRDDSKNTAYLQMNSLKTEDTAVYYCVRHGNFGNSYVSWFAYWGQGTLVTVSSASTKGPSVFPLAPSSKSTSGGTAALGCLVKDYFPEPVTVSWNSGALTSGVHTFPAVLQSSGLYSLSSVVTVPSSSLGTQTYICNVNHKPSNTKVDKRVEPKSCDKTHTCPPCPAPEAAGGPSVFLFPPKPKDTLMISRTPEVTCVVVDVSHEDPEVKFNWYVDGVEVHNAKTKPREEQYNSTYRVVSVLTVLHQDWLNGKEYKCKVSNKALAAPIEKTISKAKGQPREPQVYTLPPSREEMTKNQVSLTCLVKGFYPSDIAVEWESNGQPENNYKTTPPVLDSDGSFFLYSKLTVDKSRWQQGNVFSCSVMHEALHNHYTQKSLSLSPG
light 1: EIVLTQSPATLSLSPGERATLSCRASQSVNSNLNWYQQKPGQAPRLLIYHGSNRATGIPARFSGSGSGTDFTLTISSLEPEDFAVYYCQQFDYFKEHNTFGQGTKVEIKRTVAAPSVFIFPPSDEQLKSGTASVVCLLNNFYPREAKVQWKVDNALQSGNSQESVTEQDSKDSTYSLSSTLTLSKADYEKHKVYACEVTHQGLSSPVTKSFNRGEC
light 2: QTVVTQEPSLTVSPGGTVTLTCRSSTGAVTTSNYANWFQQKPGQAPRGLIGGTNKRAPGTPARFSGSLLGGKAALTLSGAQPEDEAEYYCALWYKQRWVFGGGTKLTVLGQPKAAPSVTLFPPSSEELQANKATLVCLISDFYPGAVTVAWKADSSPVKAGVETTTPSKQSNNKYAASSYLSLTPEQWKSHRSYSCQVTHEGSTVEKTVAPTECS
notes: Kappa-lambda body, lead optimization wave 1
binding result (human CEACAM8): no binding (tested: 10 mcg/ml) | binding result (human CD3ε [1]): binds | EC50 [2]: 59.2 nM | Top MFI value [2]: 862000 MFI | binding higher than TCB2014 (at 200 nM, 1000 nM and 5000 nM) [2]: ≥ 40% | MFI [3]: 29200 MFI | binding higher than TCB2014 (at 100 nM) [4]: ≥ 40%

B2: AB1L3-1/N (bispecific antibody, human IgG1, kappa, lambda, L234A L235A)
heavy: B1 heavy
light 1: B1 light 1 with Y93L, F94R, K95H
light 2: B1 light 2
notes: Kappa-lambda body: common heavy chain (hIgG1 L234A+L235A+P329A), kappa CEA light chain AB1, lambda CD3 light chain L3-1 (1A4); also called parental KL bispecific antibody
binding result (human CEACAM8): no binding (tested: 10 mcg/ml) | MFI [3]: 7750 MFI

B3: AB71L3-1/N (bispecific antibody, human IgG1, kappa, lambda, L234A L235A)
heavy: B1 heavy
light 1: B1 light 1 with G51S, A55P, T56H
light 2: B1 light 2
notes: Kappa-lambda body, lead optimization wave 2
binding higher than TCB2014 (at 200 nM) [5]: ≥ 40% | EC50 [2]: 34.1 nM | Top MFI value [2]: 833000 MFI | binding higher than TCB2014 (at 200 nM, 1000 nM and 5000 nM) [2]: ≥ 40% | MFI [3]: 35100 MFI

B4: AB73L3-1/N (bispecific antibody, human IgG1, kappa, lambda, L234A L235A)
heavy: B1 heavy
light 1: B1 light 1 with G51S, S52N, A55P, T56H, K95R, H97Y
light 2: B1 light 2
notes: as for B3
binding higher than TCB2014 (at 200 nM) [5]: ≥ 40% | EC50 [2]: 27.8 nM | Top MFI value [2]: 921000 MFI | binding higher than TCB2014 (at 200 nM, 1000 nM and 5000 nM) [2]: ≥ 40% | MFI [3]: 36200 MFI

B5: AB72L3-1/N (bispecific antibody, human IgG1, kappa, lambda, L234A L235A)
heavy: B1 heavy
light 1: B1 light 1 with G51S, S52T, A55P, T56R, H97Y
light 2: B1 light 2
notes: as for B3
binding higher than TCB2014 (at 200 nM) [5]: ≥ 40% | EC50 [2]: 24.5 nM | Top MFI value [2]: 963000 MFI | binding higher than TCB2014 (at 200 nM, 1000 nM and 5000 nM) [2]: ≥ 40% | binding result (human CD3ε [6]): binds | MFI [3]: 41000 MFI
